Source: patent publication US20100075897A1, “METHOD FOR S[…] BIOACTIVE PEPTIDES AND APPLICATION THEREOF” (JINAN UNIVERSITY, priority 2008, published 2010)
Where a chain is given by its changes, count along the chain named. Read-outs that look alike come from different tables or passages of the source. Ends that are not written are not given here.

Assays:
GLP-1 receptor [1] = type: cell-based; settings: CHO/GLP-1R, 30 minutes; GLP-1 released from ABP-LK-GLP; read-out: cAMP production EC50
Procedure: Samples were rotated and then centrifuged for 5 minutes (2000 g, 4° C.) to acquire precipitation. Supernatant was removed by vacuum and then the precipitation was dissolved into 300 μL of […] Tris buffer (pH7.5, containing […] EDTA), added with sodium bicarbonate (0.15 mg/mL) and zinc sulfate (0.15 mg/mL), followed by being placed on ice for 15 minutes. Centrifugation was performed at 2000 g at 4° C. for […] to remove precipitation and obtain a supernatant. The supernatant was analyzed with [^3H] cAMP competition assay kit (Amersham Biotech, QC).

GLP-1 receptor [2] = settings: CHO/GLP-1R, competition with 125I-GLP-1; fusion polypeptides after treatment with thrombin and DPP IV; read-out: Receptor binding affinity IC50
Procedure: (§1) The actual experimental steps were extracted from method as described by Montrose-Rafizadeh with proper modification as following:
(§2) (2) After cultured, removing supernatant, washing cells with cold PBS for three times, and then mixing with 0.5 mL 0.5 mol/L NaOH and 0.1% (mg/mL) SDS for 10 minutes. Irradiation of the cell lysis was determined by Apec-Series […] (ICN Biomedicals, Inc., Costa Mesa, Calif.).

GLP-1 receptor [3] = molecular target: T1, GLP-1 receptor; assay: competition with 125I-GLP-1 on CHO/GLP-1R cells; polypeptide digested with thrombin and DPP IV first
T1 chain: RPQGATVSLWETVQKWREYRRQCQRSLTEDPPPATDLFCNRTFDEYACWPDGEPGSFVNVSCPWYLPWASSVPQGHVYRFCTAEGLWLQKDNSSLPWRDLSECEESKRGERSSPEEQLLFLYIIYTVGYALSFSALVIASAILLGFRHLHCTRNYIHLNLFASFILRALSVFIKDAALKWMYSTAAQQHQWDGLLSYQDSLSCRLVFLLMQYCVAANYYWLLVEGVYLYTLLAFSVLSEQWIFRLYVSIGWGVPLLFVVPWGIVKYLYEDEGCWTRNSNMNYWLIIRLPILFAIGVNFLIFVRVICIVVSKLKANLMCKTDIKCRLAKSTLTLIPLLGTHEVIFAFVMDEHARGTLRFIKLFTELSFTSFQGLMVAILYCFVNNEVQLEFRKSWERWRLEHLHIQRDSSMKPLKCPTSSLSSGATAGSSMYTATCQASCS
Procedure: as §1, §2

GLP-1 receptor [4] = molecular target: T1, GLP-1 receptor; assay: cell-based or functional assay
human serum albumin [5] = molecular target: T2, human serum albumin (human, UniProt P02768 25-609); assay: phage ELISA on plate-coated HSA, sample row, dilution column 2 of 12
T2 construct: Bought protein; coated on plates (ELISA) or coupled to a CM5 chip (SPR); also called HSA; human albumin
T2 sequence (P02768 25-609 limits assumed): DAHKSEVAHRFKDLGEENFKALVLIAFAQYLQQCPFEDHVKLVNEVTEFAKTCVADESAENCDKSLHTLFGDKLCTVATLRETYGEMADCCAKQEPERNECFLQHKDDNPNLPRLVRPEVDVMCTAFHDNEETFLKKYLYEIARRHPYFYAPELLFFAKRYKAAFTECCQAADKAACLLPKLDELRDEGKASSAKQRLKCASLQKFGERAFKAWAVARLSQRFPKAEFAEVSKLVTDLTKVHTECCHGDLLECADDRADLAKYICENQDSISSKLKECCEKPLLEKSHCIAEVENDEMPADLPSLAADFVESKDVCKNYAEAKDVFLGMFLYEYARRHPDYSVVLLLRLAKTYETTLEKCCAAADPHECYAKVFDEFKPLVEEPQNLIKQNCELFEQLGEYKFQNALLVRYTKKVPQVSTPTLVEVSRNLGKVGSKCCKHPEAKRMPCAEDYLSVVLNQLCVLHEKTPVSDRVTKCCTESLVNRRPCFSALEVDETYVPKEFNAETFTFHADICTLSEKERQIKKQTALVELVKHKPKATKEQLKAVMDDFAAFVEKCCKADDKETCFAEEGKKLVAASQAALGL

human serum albumin [6] = molecular target: T2, human serum albumin; assay: phage ELISA on plate-coated HSA, Table 3 absorbance (sample minus blank), dilution column 1 of 12
GLP-1 receptor [7] = molecular target: T1, GLP-1 receptor; assay: competition with 125I-GLP-1 on CHO/GLP-1R cells
human serum albumin [8] = molecular target: T2, human serum albumin; assay: phage ELISA on plate-coated HSA, Table 3 absorbance (sample minus blank), dilution column 3 of 12
human serum albumin [9] = molecular target: T2, human serum albumin; assay: phage ELISA on plate-coated HSA, sample row, dilution column 1 of 12
human serum albumin [10] = molecular target: T2, human serum albumin; assay: phage ELISA on plate-coated HSA, Table 3 absorbance (sample minus blank), dilution column 2 of 12
human serum albumin [11] = molecular target: T2, human serum albumin; assay: phage ELISA on plate-coated HSA, Table 3 absorbance (sample minus blank), dilution column 6 of 12
human serum albumin [12] = molecular target: T2, human serum albumin; assay: phage ELISA on plate-coated HSA, Table 3 absorbance (sample minus blank), dilution column 7 of 12

Molecule: LPHSHRAHSLPPFNPRPA HAEGTFTSDVSSYLEGQAAKEFIAWLVKGRG [PA6.2]
- EC50 (GLP-1 receptor [1]): 23 ± 2.4 nM
- IC50 (GLP-1 receptor [2]): 2.2 ± 0.7 nM

Molecule: LPHSHRAHSLPPFNPRPP HAEGTFTSDVSSYLEGQAAKEFIAWLVKGRG [PP6.2]
- EC50 (GLP-1 receptor [1]): 21 ± 2.1 nM
- IC50 (GLP-1 receptor [2]): 2.3 ± 0.8 nM

Molecule: PDICLPRWGCLWEFNPRGA HAEGTFTSDVSSYLEGQAAKEFIAWLVKGRG [DP3.1]
- EC50 (GLP-1 receptor [1]): 23 ± 2 nM
- IC50 (GLP-1 receptor [2]): 2.1 ± 0.5 nM

Molecule: PLPHSHRAHSLPPFNPRGP HAEGTFTSDVSSYLEGQAAKEFIAWLVKGRG [DP6.2]
- EC50 (GLP-1 receptor [1]): 23 ± 2.1 nM
- IC50 (GLP-1 receptor [2]): 2.1 ± 0.8 nM

Molecule: PNICLPRWGCLWDFNPRGA HAEGTFTSDVSSYLEGQAAKEFIAWLVKGRG [DP4.1]
- EC50 (GLP-1 receptor [1]): 19 ± 2.1 nM
- IC50 (GLP-1 receptor [2]): 2.5 ± 0.8 nM

Molecule: PSSLLHWTHKIPALFNPRGS HAEGTFTSDVSSYLEGQAAKEFIAWLVKGRG [DP8.3]
- EC50 (GLP-1 receptor [1]): 23 ± 2.2 nM
- IC50 (GLP-1 receptor [2]): 2.5 ± 0.6 nM

B1: M3.1 fusion polypeptide (peptide)
peptide: DICLPRWGCLWEFNPRGAHAEGTFTSDVSSYLEGQAAKEFIAWLVKGRG
notes: ABP-LK-GLP fusion polypeptide; also called ABP-LK-GLP
- IC50 (GLP-1 receptor [3]): 2.2 nM
- cAMP production EC50 (GLP-1 receptor [4]): 22 nM

B2: M3.2 fusion polypeptide (peptide)
peptide: B1 peptide with A18P
notes: as for B1
- IC50 (GLP-1 receptor [3]): 2.1 nM
- cAMP production EC50 (GLP-1 receptor [4]): 21 nM

B3: M4.2 fusion polypeptide (peptide)
peptide: B1 peptide with D1N, E12D, A18P
notes: as for B1
- IC50 (GLP-1 receptor [3]): 2.2 nM
- cAMP production EC50 (GLP-1 receptor [4]): 21 nM

B4: M4.3 fusion polypeptide (peptide)
peptide: B1 peptide with D1N, E12D, A18S
notes: as for B1
- IC50 (GLP-1 receptor [3]): 2.2 nM
- cAMP production EC50 (GLP-1 receptor [4]): 19 nM

B5: Phage ID NO. 1 (M13 phage displaying the peptide of SEQ ID NO. 1, NVCLPKWGCLWE) (peptide)
peptide: NVCLPKWGCLWE
modifications: not fully specified (bridges); cysteine pairing not given here; also: displayed on M13 phage coat protein
notes: Tested as whole phage particles, not as free peptide; not shown: not described
- absorbance at 405 nm (human serum albumin [5]): 0.09
- absorbance at 405 nm (human serum albumin [6]): 0.04

B6: DP4.3 fusion polypeptide (peptide)
peptide: PNICLPRWGCLWDFNPRGSHAEGTFTSDVSSYLEGQAAKEFIAWLVKGRG
notes: as for B1
- IC50 (GLP-1 receptor [3]): 2.1 nM
- cAMP production EC50 (GLP-1 receptor [4]): 18 nM

B7: DP3.1 fusion polypeptide (peptide)
peptide: B6 peptide with N2D, D13E, S19A
notes: as for B1
- IC50 (GLP-1 receptor [3]): 2.1 nM
- cAMP production EC50 (GLP-1 receptor [4]): 23 nM

B8: DP3.2 fusion polypeptide (peptide)
peptide: B6 peptide with N2D, D13E, S19P
notes: as for B1
- IC50 (GLP-1 receptor [3]): 2.3 nM
- cAMP production EC50 (GLP-1 receptor [4]): 19 nM

B9: DP3.3 fusion polypeptide (peptide)
peptide: B6 peptide with N2D, D13E
notes: as for B1
- IC50 (GLP-1 receptor [3]): 2.3 nM
- cAMP production EC50 (GLP-1 receptor [4]): 21 nM

B10: DP4.1 fusion polypeptide (peptide)
peptide: B6 peptide with S19A
notes: as for B1
- IC50 (GLP-1 receptor [3]): 2.5 nM
- cAMP production EC50 (GLP-1 receptor [4]): 19 nM

Molecule: FNPRHAEGTFTSDVSSYLEGQAAKEFIAWLVKGRG (GLP-1(7-37) with N-terminal FNPR) [FN-GLP]
- IC50 (GLP-1 receptor [7]): 450 nM
- cAMP production EC50 (GLP-1 receptor [4]): > 1000 nM

Molecule: LVPRHAEGTFTSDVSSYLEGQAAKEFIAWLVKGRG (GLP-1(7-37) with N-terminal LVPR) [LV-GLP]
- IC50 (GLP-1 receptor [7]): 467 nM
- cAMP production EC50 (GLP-1 receptor [4]): > 1000 nM

B11: Phage ID NO. 2 (M13 phage displaying the peptide of SEQ ID NO. 2, DVCLPQWGCLWG) (peptide)
peptide: DVCLPQWGCLWG
modifications: not fully specified (bridges); cysteine pairing not given here; also: displayed on M13 phage coat protein
notes: as for B5
- absorbance at 405 nm (human serum albumin [8]): 0.04

B12: Phage ID NO. 6 (M13 phage displaying the peptide of SEQ ID NO. 6, LPHSHRAHSLPP) (peptide)
peptide: LPHSHRAHSLPP
modifications: also: displayed on M13 phage coat protein
notes: as for B5
- absorbance at 405 nm (human serum albumin [8]): 0.05
- absorbance at 405 nm (human serum albumin [5]): 0.09

B13: DP8.3 fusion polypeptide (peptide)
peptide: PSSLLHWTHKIPALFNPRGSHAEGTFTSDVSSYLEGQAAKEFIAWLVKGRG
notes: ABP-LK-GLP fusion polypeptide, copied as printed with PSS at the N-terminus (DP8.1 and DP8.2 have PS); also called ABP-LK-GLP
- IC50 (GLP-1 receptor [3]): 2.5 nM
- cAMP production EC50 (GLP-1 receptor [4]): 23 nM

B14: Phage ID NO. 4 (M13 phage displaying the peptide of SEQ ID NO. 4, NICLPRWGCLWD) (peptide)
peptide: NICLPRWGCLWD
modifications: not fully specified (bridges); cysteine pairing not given here; also: displayed on M13 phage coat protein
notes: as for B5
- absorbance at 405 nm (human serum albumin [9]): 0.08
- absorbance at 405 nm (human serum albumin [10]): 0.04

B15: Phage ID NO. 5 (M13 phage displaying the peptide of SEQ ID NO. 5, LPWHLKYREPPR) (peptide)
peptide: LPWHLKYREPPR
modifications: also: displayed on M13 phage coat protein
notes: as for B5
- absorbance at 405 nm (human serum albumin [11]): 0.08

B16: DP6.1 fusion polypeptide (peptide)
peptide: PLPHSHRAHSLPPFNPRGAHAEGTFTSDVSSYLEGQAAKEFIAWLVKGRG
notes: as for B1
- IC50 (GLP-1 receptor [3]): 2 nM
- cAMP production EC50 (GLP-1 receptor [4]): 23 nM

B17: DP6.2 fusion polypeptide (peptide)
peptide: B16 peptide with A19P
notes: as for B1
- IC50 (GLP-1 receptor [3]): 2.1 nM
- cAMP production EC50 (GLP-1 receptor [4]): 23 nM

B18: M6.1 fusion polypeptide (peptide)
peptide: LPHSHRAHSLPPFNPRGAHAEGTFTSDVSSYLEGQAAKEFIAWLVKGRG
notes: as for B1
- IC50 (GLP-1 receptor [3]): 2.2 nM
- cAMP production EC50 (GLP-1 receptor [4]): 24 nM

B19: PA6.2 fusion polypeptide (peptide)
peptide: B18 peptide with G17P
notes: as for B1
- IC50 (GLP-1 receptor [3]): 2.2 nM
- cAMP production EC50 (GLP-1 receptor [4]): 23 nM

B20: M6.2 fusion polypeptide (peptide)
peptide: B18 peptide with A18P
notes: as for B1
- IC50 (GLP-1 receptor [3]): 2.3 nM
- cAMP production EC50 (GLP-1 receptor [4]): 21 nM

B21: PP6.2 fusion polypeptide (peptide)
peptide: B18 peptide with G17P, A18P
notes: as for B1
- IC50 (GLP-1 receptor [3]): 2.3 nM
- cAMP production EC50 (GLP-1 receptor [4]): 21 nM

B22: Phage ID NO. 7 (M13 phage displaying the peptide of SEQ ID NO. 7, SLFRHQHATPQI) (peptide)
peptide: SLFRHQHATPQI
modifications: also: displayed on M13 phage coat protein
notes: as for B5
- absorbance at 405 nm (human serum albumin [12]): 0.1
- absorbance at 405 nm (human serum albumin [9]): 0.08
- absorbance at 405 nm (human serum albumin [5]): 0.08

B23: DP8.1 fusion polypeptide (peptide)
peptide: PSLLHWTHKIPALFNPRGAHAEGTFTSDVSSYLEGQAAKEFIAWLVKGRG
notes: as for B1
- IC50 (GLP-1 receptor [3]): 2.2 nM
- cAMP production EC50 (GLP-1 receptor [4]): 24 nM

B24: DP8.2 fusion polypeptide (peptide)
peptide: B23 peptide with A19P
notes: as for B1
- IC50 (GLP-1 receptor [3]): 1.9 nM
- cAMP production EC50 (GLP-1 receptor [4]): 22 nM

B25: M8.1 fusion polypeptide (peptide)
peptide: SLLHWTHKIPALFNPRGAHAEGTFTSDVSSYLEGQAAKEFIAWLVKGRG
notes: as for B1
- IC50 (GLP-1 receptor [3]): 2.2 nM
- cAMP production EC50 (GLP-1 receptor [4]): 24 nM

B26: M8.2 fusion polypeptide (peptide)
peptide: B25 peptide with A18P
notes: as for B1
- IC50 (GLP-1 receptor [3]): 1.9 nM
- cAMP production EC50 (GLP-1 receptor [4]): 21 nM

B27: M8.3 fusion polypeptide (peptide)
peptide: B25 peptide with A18S
notes: as for B1
- IC50 (GLP-1 receptor [3]): 2.2 nM
- cAMP production EC50 (GLP-1 receptor [4]): 21 nM
